Measurements as given in paper PMC7937191 (Biochemical and biophysical research communications, 2020).

Biological target: CXCR4-RLuc (chemokine (C-X-C motif) receptor 4 with Renilla reniformis luciferase at the C-terminus) (UniProt P61073 1-352)
Experiment: FRET or BRET

Chain of CXCR4-RLuc (chemokine (C-X-C motif) receptor 4 with Renilla reniformis luciferase at the C-terminus) (P61073 whole entry): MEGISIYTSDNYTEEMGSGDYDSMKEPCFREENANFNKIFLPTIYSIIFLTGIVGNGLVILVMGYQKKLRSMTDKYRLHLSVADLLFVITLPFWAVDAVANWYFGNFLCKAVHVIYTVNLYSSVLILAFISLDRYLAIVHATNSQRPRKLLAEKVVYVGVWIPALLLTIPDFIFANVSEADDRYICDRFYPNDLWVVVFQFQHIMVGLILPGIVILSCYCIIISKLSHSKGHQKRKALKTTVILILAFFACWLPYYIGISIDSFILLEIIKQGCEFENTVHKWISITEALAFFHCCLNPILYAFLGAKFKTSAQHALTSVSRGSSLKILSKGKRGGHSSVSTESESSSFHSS

| BRET50 (EYFP/Lum) | Binder |
| --- | --- |
| 0.051 EYFP/Lum | α1d-AR-EYFP (α1d-adrenergic receptor with enhanced yellow fluorescent protein at the C-terminus) (receptor, UniProt P25100 1-572, looked up) MTFRDLLSVSFEGPRPDSSAGGSSAGGGGGSAGGAAPSEGPAVGGVPGGAGGGGGVVGAGSGEDNRSSAGEPGSAGAGGDVNGTAAVGGLVVSAQGVGVGVFLAAFILMAVAGNLLVILSVACNRHLQTVTNYFIVNLAVADLLLSATVLPFSATMEVLGFWAFGRAFCDVWAAVDVLCCTASILSLCTISVDRYVGVRHSLKYPAIMTERKAAAILALLWVVALVVSVGPLLGWKEPVPPDERFCGITEEAGYAVFSSVCSFYLPMAVIVVMYCRVYVVARSTTRSLEAGVKRERGKASEVVLRIHCRGAATGADGAHGMRSAKGHTFRSSLSVRLLKFSREKKAAKTLAIVVGVFVLCWFPFFFVLPLGSLFPQLKPSEGVFKVIFWLGYFNSCVNPLIYPCSSREFKRAFLRLLRCQCRRRRRRRPLWRVYGHHWRASTSGLRQDCAPSSGDAPPGAPLALTALPDPDPEPPGTPEMQAPVASRRKPPSAFREWRLLGPFRRPTTQLRAKVSSLSHKIRAGGAQRAEAACAQRSEVEAVSLGVPHEVAEGATCQAYELADYSNLRETDI |
| 0.072 EYFP/Lum | α1b-AR-EYFP (α1b-adrenergic receptor with enhanced yellow fluorescent protein at the C-terminus) (receptor, UniProt P35368 1-520, looked up) MNPDLDTGHNTSAPAHWGELKNANFTGPNQTSSNSTLPQLDITRAISVGLVLGAFILFAIVGNILVILSVACNRHLRTPTNYFIVNLAMADLLLSFTVLPFSAALEVLGYWVLGRIFCDIWAAVDVLCCTASILSLCAISIDRYIGVRYSLQYPTLVTRRKAILALLSVWVLSTVISIGPLLGWKEPAPNDDKECGVTEEPFYALFSSLGSFYIPLAVILVMYCRVYIVAKRTTKNLEAGVMKEMSNSKELTLRIHSKNFHEDTLSSTKAKGHNPRSSIAVKLFKFSREKKAAKTLGIVVGMFILCWLPFFIALPLGSLFSTLKPPDAVFKVVFWLGYFNSCLNPIIYPCSSKEFKRAFVRILGCQCRGRGRRRRRRRRRLGGCAYTYRPWTRGGSLERSQSRKDSLDDSGSCLSGSQRTLPSASPSPGYLGRGAPPPVELCAFPEWKAPGALLSLPAPEPPGRRGRHDSGPLFTFKLLTEPESPGTDGGASNGGCEAAADVANGQPGFKSNMPLAPGQF |
| 0.055 EYFP/Lum | α1a-AR-EYFP (α1a-adrenergic receptor with enhanced yellow fluorescent protein at the C-terminus) (receptor, UniProt P35348 1-466, looked up) MVFLSGNASDSSNCTQPPAPVNISKAILLGVILGGLILFGVLGNILVILSVACHRHLHSVTHYYIVNLAVADLLLTSTVLPFSAIFEVLGYWAFGRVFCNIWAAVDVLCCTASIMGLCIISIDRYIGVSYPLRYPTIVTQRRGLMALLCVWALSLVISIGPLFGWRQPAPEDETICQINEEPGYVLFSALGSFYLPLAIILVMYCRVYVVAKRESRGLKSGLKTDKSDSEQVTLRIHRKNAPAGGSGMASAKTKTHFSVRLLKFSREKKAAKTLGIVVGCFVLCWLPFFLVMPIGSFFPDFKPSETVFKIVFWLGYLNSCINPIIYPCSSQEFKKAFQNVLRIQCLCRKQSSKHALGYTLHPPSQAVEGQHKDMVRIPVGSRETFYRISKTDGVCEWKFFSSMPRGSARITVSKDQSSCTTARVRSKSFLQVCCCVGPSTPSLDKNHQVPTIKVHTISLSENGEEV |
